In general, stoichiometry N refers to a count of units in the complex or per binding partner.

Assay [1] concerns the target Ku70/80 heterodimer (human (endogenous in HeLa)) (UniProt P12956).
The target of assay [2] is XRCC4-DNA ligase IV (X4L4) complex (human) (UniProt Q13426).
Chain of XRCC4-DNA ligase IV (X4L4) complex (human) (Q13426 whole entry, chain 1 of 2): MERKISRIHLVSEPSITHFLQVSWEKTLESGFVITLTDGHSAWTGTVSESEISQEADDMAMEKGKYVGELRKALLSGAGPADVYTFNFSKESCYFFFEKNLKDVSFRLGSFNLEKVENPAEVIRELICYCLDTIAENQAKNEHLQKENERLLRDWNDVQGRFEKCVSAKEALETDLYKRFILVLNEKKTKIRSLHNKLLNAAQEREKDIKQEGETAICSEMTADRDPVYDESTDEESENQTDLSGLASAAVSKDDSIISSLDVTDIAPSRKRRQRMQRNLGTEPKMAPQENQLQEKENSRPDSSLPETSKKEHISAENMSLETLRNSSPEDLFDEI
Chain of XRCC4-DNA ligase IV (X4L4) complex (human) (P49917 whole entry, chain 2 of 2, further chain): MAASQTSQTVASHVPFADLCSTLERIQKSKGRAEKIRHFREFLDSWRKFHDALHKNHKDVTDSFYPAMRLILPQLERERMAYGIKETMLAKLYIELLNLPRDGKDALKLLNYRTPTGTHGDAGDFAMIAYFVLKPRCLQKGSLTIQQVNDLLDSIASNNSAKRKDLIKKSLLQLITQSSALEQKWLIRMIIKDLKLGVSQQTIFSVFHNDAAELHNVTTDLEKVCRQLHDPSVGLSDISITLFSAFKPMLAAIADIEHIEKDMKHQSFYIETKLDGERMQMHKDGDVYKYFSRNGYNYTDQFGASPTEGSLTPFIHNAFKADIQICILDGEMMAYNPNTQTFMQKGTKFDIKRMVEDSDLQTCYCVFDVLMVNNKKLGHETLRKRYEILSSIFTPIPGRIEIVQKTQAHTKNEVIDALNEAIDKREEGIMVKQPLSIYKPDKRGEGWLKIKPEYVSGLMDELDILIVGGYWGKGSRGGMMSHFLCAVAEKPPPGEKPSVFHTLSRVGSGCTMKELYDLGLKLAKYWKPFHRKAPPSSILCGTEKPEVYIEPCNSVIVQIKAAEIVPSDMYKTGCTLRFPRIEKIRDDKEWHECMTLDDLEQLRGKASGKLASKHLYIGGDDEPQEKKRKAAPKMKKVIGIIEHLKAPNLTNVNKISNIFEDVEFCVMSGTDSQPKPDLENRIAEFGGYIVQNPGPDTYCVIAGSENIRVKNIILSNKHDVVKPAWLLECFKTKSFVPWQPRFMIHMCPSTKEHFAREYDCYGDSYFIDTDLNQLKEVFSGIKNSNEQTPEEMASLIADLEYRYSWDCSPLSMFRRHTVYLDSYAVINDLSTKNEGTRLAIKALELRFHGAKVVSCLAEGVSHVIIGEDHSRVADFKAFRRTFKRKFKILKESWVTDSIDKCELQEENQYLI

Chain of aprataxin and polynucleotide kinase/phosphatase-like factor (APLF), GST tag removed (Q8IW19 whole entry): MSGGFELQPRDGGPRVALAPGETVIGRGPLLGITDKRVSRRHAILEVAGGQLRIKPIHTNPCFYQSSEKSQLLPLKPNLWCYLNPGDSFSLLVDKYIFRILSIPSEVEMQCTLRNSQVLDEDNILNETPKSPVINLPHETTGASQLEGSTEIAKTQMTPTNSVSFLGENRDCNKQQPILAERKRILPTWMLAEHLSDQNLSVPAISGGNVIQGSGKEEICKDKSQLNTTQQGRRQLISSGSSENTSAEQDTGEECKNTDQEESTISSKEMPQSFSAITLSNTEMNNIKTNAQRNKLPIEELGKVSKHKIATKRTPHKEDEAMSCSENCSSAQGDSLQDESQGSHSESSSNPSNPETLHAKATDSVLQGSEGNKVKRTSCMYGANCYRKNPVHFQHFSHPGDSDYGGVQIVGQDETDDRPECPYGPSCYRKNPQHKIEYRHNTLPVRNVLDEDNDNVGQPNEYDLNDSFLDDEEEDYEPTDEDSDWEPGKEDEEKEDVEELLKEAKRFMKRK
Chain of Ku70/80 heterodimer (human (endogenous in HeLa)) (P12956 whole entry, chain 1 of 2): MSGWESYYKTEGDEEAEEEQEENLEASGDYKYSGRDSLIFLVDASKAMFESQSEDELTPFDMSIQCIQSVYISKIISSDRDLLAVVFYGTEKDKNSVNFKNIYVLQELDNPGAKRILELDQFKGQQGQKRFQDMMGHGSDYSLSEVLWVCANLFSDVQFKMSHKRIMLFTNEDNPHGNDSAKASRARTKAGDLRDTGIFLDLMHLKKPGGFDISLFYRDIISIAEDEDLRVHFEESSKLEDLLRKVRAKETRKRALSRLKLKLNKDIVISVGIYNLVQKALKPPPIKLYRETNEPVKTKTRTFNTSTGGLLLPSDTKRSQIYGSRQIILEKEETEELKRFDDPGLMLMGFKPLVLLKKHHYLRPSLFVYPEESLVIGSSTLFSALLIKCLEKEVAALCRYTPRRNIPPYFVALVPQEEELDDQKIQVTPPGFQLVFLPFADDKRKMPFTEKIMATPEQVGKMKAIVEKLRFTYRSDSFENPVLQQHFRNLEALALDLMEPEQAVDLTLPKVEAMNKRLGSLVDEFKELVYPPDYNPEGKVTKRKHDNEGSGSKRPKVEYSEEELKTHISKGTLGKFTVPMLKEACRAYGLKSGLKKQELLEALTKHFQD
Chain of Ku70/80 heterodimer (human (endogenous in HeLa)) (P13010 whole entry, chain 2 of 2, further chain): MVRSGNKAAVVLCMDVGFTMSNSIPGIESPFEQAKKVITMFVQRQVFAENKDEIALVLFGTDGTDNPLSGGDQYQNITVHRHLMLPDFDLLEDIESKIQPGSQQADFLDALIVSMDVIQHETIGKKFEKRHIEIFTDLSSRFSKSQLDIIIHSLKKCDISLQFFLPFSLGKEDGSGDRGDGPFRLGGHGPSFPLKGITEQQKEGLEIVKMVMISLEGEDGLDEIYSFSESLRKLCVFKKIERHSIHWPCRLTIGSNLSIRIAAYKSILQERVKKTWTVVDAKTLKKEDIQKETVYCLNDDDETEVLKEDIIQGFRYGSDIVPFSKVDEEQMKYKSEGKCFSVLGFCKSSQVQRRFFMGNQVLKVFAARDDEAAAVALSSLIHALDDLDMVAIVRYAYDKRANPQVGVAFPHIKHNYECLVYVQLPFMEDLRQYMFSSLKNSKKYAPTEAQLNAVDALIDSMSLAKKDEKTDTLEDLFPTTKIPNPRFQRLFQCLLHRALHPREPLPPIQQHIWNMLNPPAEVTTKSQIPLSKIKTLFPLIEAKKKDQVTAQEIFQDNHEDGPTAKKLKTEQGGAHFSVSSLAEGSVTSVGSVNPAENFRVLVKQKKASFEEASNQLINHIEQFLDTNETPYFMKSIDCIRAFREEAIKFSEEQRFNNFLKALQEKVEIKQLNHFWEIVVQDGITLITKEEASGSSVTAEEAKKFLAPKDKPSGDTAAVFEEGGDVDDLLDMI

Take “aprataxin and polynucleotide kinase/phosphatase-like factor (APLF), GST tag removed (from UniProt Q8IW19 1-511) (natural protein)”: the stoichiometry N in assay [1] and in assay [2] was 1 in each case.

(Values after article PMC5207133.)
